In the supplement of paper PMC10567573:

B1: C20orf112 (parent)
chain: YANGGLNYSYRGYGALSSNLQPPA

Variants of: B1
Assay: protein stability index of a GFP-peptide fusion (GPS, HEK-293T) (PSI 1-6); higher = more stable
Settings: c terminus: a fixed tail appended
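Note: lentivirally expressed fusions sorted by FACS into six bins by GFP to DsRed ratio, PSI derived from sequencing read proportions per bin multiplied by bin number.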

| Variant | protein stability index |
| --- | --- |
| YANQGLNYSYRGYGALSSNLQPPA | 2.06 |
| YANSGLNYSYRGYGALSSNLQPPA | 1.66 |
| YANNGLNYSYRGYGALSSNLQPPA | 2.02 |
| YANVGLNYSYRGYGALSSNLQPPA | 2.32 |
| YANAGLNYSYRGYGALSSNLQPPA | 2.81 |
| YANCGLNYSYRGYGALSSNLQPPA | 1.91 |
| YANKGLNYSYRGYGALSSNLQPPA | 2.4 |
| YANEGLNYSYRGYGALSSNLQPPA | 2.01 |
| YANLGLNYSYRGYGALSSNLQPPA | 2.01 |
| YANYGLNYSYRGYGALSSNLQPPA | 2.38 |
| YANRGLNYSYRGYGALSSNLQPPA | 1.38 |
| YANPGLNYSYRGYGALSSNLQPPA | 2.18 |
| YANMGLNYSYRGYGALSSNLQPPA | 1.48 |
| YANFGLNYSYRGYGALSSNLQPPA | 1.42 |
| YANDGLNYSYRGYGALSSNLQPPA | 2.05 |
| YANHGLNYSYRGYGALSSNLQPPA | 1.6 |
| YANWGLNYSYRGYGALSSNLQPPA | 1.99 |
| YANIGLNYSYRGYGALSSNLQPPA | 1.93 |
| YANTGLNYSYRGYGALSSNLQPPA | 1.98 |
| YENGGLNYSYRGYGALSSNLQPPA | 2.63 |
| YMNGGLNYSYRGYGALSSNLQPPA | 1.68 |
| YNNGGLNYSYRGYGALSSNLQPPA | 2.3 |
| YSNGGLNYSYRGYGALSSNLQPPA | 1.54 |
| YCNGGLNYSYRGYGALSSNLQPPA | 1.87 |

| Variant | protein stability index |
| --- | --- |
| YVNGGLNYSYRGYGALSSNLQPPA | 2.49 |
| YHNGGLNYSYRGYGALSSNLQPPA | 1.62 |
| YLNGGLNYSYRGYGALSSNLQPPA | 1.93 |
| YKNGGLNYSYRGYGALSSNLQPPA | 2.19 |
| YYNGGLNYSYRGYGALSSNLQPPA | 2.63 |
| YFNGGLNYSYRGYGALSSNLQPPA | 2.07 |
| YDNGGLNYSYRGYGALSSNLQPPA | 2.81 |
| YQNGGLNYSYRGYGALSSNLQPPA | 1.4 |
| YWNGGLNYSYRGYGALSSNLQPPA | 2.22 |
| YRNGGLNYSYRGYGALSSNLQPPA | 2.22 |
| YINGGLNYSYRGYGALSSNLQPPA | 2.1 |
| YGNGGLNYSYRGYGALSSNLQPPA | 1.95 |
| YTNGGLNYSYRGYGALSSNLQPPA | 1.99 |
| GANGGLNYSYRGYGALSSNLQPPA | 3.16 |
| VANGGLNYSYRGYGALSSNLQPPA | 2.2 |
| IANGGLNYSYRGYGALSSNLQPPA | 2.45 |
| RANGGLNYSYRGYGALSSNLQPPA | 2.97 |
| NANGGLNYSYRGYGALSSNLQPPA | 3.08 |
| SANGGLNYSYRGYGALSSNLQPPA | 3.12 |
| KANGGLNYSYRGYGALSSNLQPPA | 2.96 |
| PANGGLNYSYRGYGALSSNLQPPA | 2.43 |
| AANGGLNYSYRGYGALSSNLQPPA | 3.08 |
| MANGGLNYSYRGYGALSSNLQPPA | 2.87 |
| FANGGLNYSYRGYGALSSNLQPPA | 1.86 |

| Variant | protein stability index |
| --- | --- |
| TANGGLNYSYRGYGALSSNLQPPA | 2.83 |
| CANGGLNYSYRGYGALSSNLQPPA | 1.96 |
| DANGGLNYSYRGYGALSSNLQPPA | 2.9 |
| LANGGLNYSYRGYGALSSNLQPPA | 2.67 |
| HANGGLNYSYRGYGALSSNLQPPA | 2.64 |
| QANGGLNYSYRGYGALSSNLQPPA | 3.32 |
| EANGGLNYSYRGYGALSSNLQPPA | 3.15 |
| WANGGLNYSYRGYGALSSNLQPPA | 1.85 |
| YANGHLNYSYRGYGALSSNLQPPA | 2.08 |
| YANGILNYSYRGYGALSSNLQPPA | 2.21 |
| YANGMLNYSYRGYGALSSNLQPPA | 2.49 |
| YANGFLNYSYRGYGALSSNLQPPA | 1.98 |
| YANGNLNYSYRGYGALSSNLQPPA | 1.72 |
| YANGCLNYSYRGYGALSSNLQPPA | 2.2 |
| YANGTLNYSYRGYGALSSNLQPPA | 1.91 |
| YANGRLNYSYRGYGALSSNLQPPA | 1.98 |
| YANGDLNYSYRGYGALSSNLQPPA | 2.08 |
| YANGVLNYSYRGYGALSSNLQPPA | 2.03 |
| YANGSLNYSYRGYGALSSNLQPPA | 1.65 |
| YANGPLNYSYRGYGALSSNLQPPA | 2.02 |
| YANGELNYSYRGYGALSSNLQPPA | 2.4 |
| YANGYLNYSYRGYGALSSNLQPPA | 1.86 |
| YANGWLNYSYRGYGALSSNLQPPA | 2.37 |
| YANGQLNYSYRGYGALSSNLQPPA | 1.93 |

| Variant | protein stability index |
| --- | --- |
| YANGALNYSYRGYGALSSNLQPPA | 1.99 |
| YANGLLNYSYRGYGALSSNLQPPA | 1.9 |
| YANGKLNYSYRGYGALSSNLQPPA | 1.82 |
| YAVGGLNYSYRGYGALSSNLQPPA | 2.08 |
| YAWGGLNYSYRGYGALSSNLQPPA | 1.82 |
| YAPGGLNYSYRGYGALSSNLQPPA | 2.35 |
| YATGGLNYSYRGYGALSSNLQPPA | 1.65 |
| YALGGLNYSYRGYGALSSNLQPPA | 2.25 |
| YAAGGLNYSYRGYGALSSNLQPPA | 1.64 |
| YAGGGLNYSYRGYGALSSNLQPPA | 1.98 |
| YAIGGLNYSYRGYGALSSNLQPPA | 2.11 |
| YAKGGLNYSYRGYGALSSNLQPPA | 1.7 |
| YASGGLNYSYRGYGALSSNLQPPA | 1.99 |
| YAQGGLNYSYRGYGALSSNLQPPA | 1.65 |
| YADGGLNYSYRGYGALSSNLQPPA | 2.56 |
| YAEGGLNYSYRGYGALSSNLQPPA | 1.6 |
| YARGGLNYSYRGYGALSSNLQPPA | 2.25 |
| YAMGGLNYSYRGYGALSSNLQPPA | 1.5 |
| YAFGGLNYSYRGYGALSSNLQPPA | 2.04 |
| YAHGGLNYSYRGYGALSSNLQPPA | 1.55 |
| YAYGGLNYSYRGYGALSSNLQPPA | 1.8 |
| YACGGLNYSYRGYGALSSNLQPPA | 1.69 |
